Key:
[1] = biological target: T1, Ubl45^ΔC (tailless Ubl45) (UniProt Q93009 890-1082); assay: SPR; GST-USP7CD captured by anti-GST antibody on CM5 chip, Ubl45 or Ubl45ΔC flowed over; Biacore T200, 25 °C; 20 mM HEPES pH 7.5, 100 mM NaCl, 1 mM DTT, 1 mM EDTA, 0.05% Tween-20, 1 mg/mL BSA, 1 mg/mL dextran; equilibrium fit 1:1, extrapolated; details: both partners purified
T1 construct: USP7 Ubl45 without the C-terminal tail: stop codon introduced at residue 1083; start 890 as told for Ubl45; also called tailless construct; source: E. coli BL21, purified (Glutathione Sepharose, 3C cleavage, anion exchange, gel filtration)

[2] = biological target: T2, USP7 Ubl45 (last two Ubl domains with the activating C-terminal tail) (UniProt Q93009 890-1102); assay: as above; details: both partners purified
T2 construct: USP7 Ubl domains 4 and 5 with the C-terminal tail, residues 890-1102 (25 kDa); source: E. coli BL21, purified (Glutathione Sepharose, 3C cleavage, anion exchange, gel filtration); 15N-labelled in M9 minimal medium for NMR
T2 sequence (Q93009 890-1102): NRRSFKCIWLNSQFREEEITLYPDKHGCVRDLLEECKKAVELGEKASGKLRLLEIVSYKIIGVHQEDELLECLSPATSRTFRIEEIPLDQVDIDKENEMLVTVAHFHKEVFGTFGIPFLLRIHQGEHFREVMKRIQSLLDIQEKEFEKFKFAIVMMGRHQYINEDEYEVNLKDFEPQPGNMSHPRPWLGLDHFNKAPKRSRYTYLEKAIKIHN

T1 sequence (Q93009 890-1082, stated change not applied): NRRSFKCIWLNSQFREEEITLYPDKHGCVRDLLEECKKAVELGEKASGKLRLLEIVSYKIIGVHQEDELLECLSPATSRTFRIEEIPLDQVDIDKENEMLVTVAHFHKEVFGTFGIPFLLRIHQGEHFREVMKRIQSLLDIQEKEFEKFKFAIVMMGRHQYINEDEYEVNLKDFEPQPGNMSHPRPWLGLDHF

B1: GST-USP7CD (domain or fragment)
chain: KKHTGYVGLKNQGATCYMNSLLQTLFFTNQLRKAVYMMPTEGDDSSKSVPLALQRVFYELQHSDKPVGTKKLTKSFGWETLDSFMQHDVQELCRVLLDNVENKMKGTCVEGTIPKLFRGKMVSYIQCKEVDYRSDRREDYYDIQLSIKGKKNIFESFVDYVAVEQLDGDNKYDAGEHGLQEAEKGVKFLTLPPVLHLQLMRFMYDPQTDQNIKINDRFEFPEQLPLDEFLQKTDPKDPANYILHAVLVHSGDNHGGHYVVYLNPKGDGKWCKFDDDVVSRCTKEEAIEHNYGGHDDDLSVRHCTNAYMLVYIRESKLSEVLQAVTDHDIPQQLVERLQEEKRIEAQKRKERQE
modifications: GST tag (used for chip immobilisation) left out; limits 208-560 are the usual USP7 CD construct limits, not printed in the text (consistent with the stated 42 kDa)
Q: Which results are given for B1?
A: Kd [1]: 420 µM; Kd [2]: ~280 µM

— PMC6335408 (Nature Communications, 2019)
